Laboratory results from publication PMC2886590 (Journal of molecular biology, 2010).
Where no end group is shown, it is not given here.

Biological target: MLL PHD3 finger (residues 1565-1627), GST cleaved (human, UniProt Q03164 1565-1627)
Test: other fluorescence titration

MLL PHD3 finger (residues 1565-1627), GST cleaved, sequence (Q03164 1565-1627): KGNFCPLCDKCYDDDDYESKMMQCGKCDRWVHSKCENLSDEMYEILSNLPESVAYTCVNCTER

Binder	fold lower affinity than for H3K4me3
ARTK(Me2)QTARKSTG [H3K4me2 peptide (12-mer histone tail peptide)]	8 fold
ARTK(Me)QTARKSTG [H3K4me1 peptide (12-mer histone tail peptide)]	53 fold
